Assay results from PMC5086636 (Toxins, 2016).
Values joined by “and” are separate entries in the source; they are usually repeats but may differ in a detail not shown here. Equal values may be shown once.

Tests used:
Synaptotagmin-II 8-61 = Synaptotagmin-II 8-61 (UniProt P29101); test: ITC; details: cited from earlier work
[1] = target: T1, Syt-II_(40-60) peptide (amino acid residues 40-60 of the mouse synaptotagmin protein) (mouse); test: BLI; Octet Red; […]; 25 °C; PBS + 0.02% Tween 20, 1% BSA, 0.05% azide; […]; details: one partner purified
T1 peptide: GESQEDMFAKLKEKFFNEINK

[2] = target: Synaptotagmin-II 40-60, P29101
Chain of Synaptotagmin-II 40-60, P29101 (P29101 40-60): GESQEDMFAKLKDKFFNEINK

Chain of Synaptotagmin-II 8-61 (P29101 8-61): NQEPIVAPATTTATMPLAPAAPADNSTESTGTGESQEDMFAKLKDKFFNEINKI

## BoNT/B 858-1291 (from UniProt P10844)
Synaptotagmin-II 8-61
  Kd: 34 nM

B1: Botulinum neurotoxin type B (natural protein)
chain: MPVTINNFNYNDPIDNNNIIMMEPPFARGTGRYYKAFKITDRIWIIPERYTFGYKPEDFNKSSGIFNRDVCEYYDPDYLNTNDKKNIFLQTMIKLFNRIKSKPLGEKLLEMIINGIPYLGDRRVPLEEFNTNIASVTVNKLISNPGEVERKKGIFANLIIFGPGPVLNENETIDIGIQNHFASREGFGGIMQMKFCPEYVSVFNNVQENKGASIFNRRGYFSDPALILMHELIHVLHGLYGIKVDDLPIVPNEKKFFMQSTDAIQAEELYTFGGQDPSIITPSTDKSIYDKVLQNFRGIVDRLNKVLVCISDPNININIYKNKFKDKYKFVEDSEGKYSIDVESFDKLYKSLMFGFTETNIAENYKIKTRASYFSDSLPPVKIKNLLDNEIYTIEEGFNISDKDMEKEYRGQNKAINKQAYEEISKEHLAVYKIQMCKSVKAPGICIDVDNEDLFFIADKNSFSDDLSKNERIEYNTQSNYIENDFPINELILDTDLISKIELPSENTESLTDFNVDVPVYEKQPAIKKIFTDENTIFQYLYSQTFPLDIRDISLTSSFDDALLFSNKVYSFFSMDYIKTANKVVEAGLFAGWVKQIVNDFVIEANKSNTMDKIADISLIVPYIGLALNVGNETAKGNFENAFEIAGASILLEFIPELLIPVVGAFLLESYIDNKNKIIKTIDNALTKRNEKWSDMYGLIVAQWLSTVNTQFYTIKEGMYKALNYQAQALEEIIKYRYNIYSEKEKSNINIDFNDINSKLNEGINQAIDNINNFINGCSVSYLMKKMIPLAVEKLLDFDNTLKKNLLNYIDENKLYLIGSAEYEKSKVNKYLKTIMPFDLSIYTNDTILIEMFNKYNSEILNNIILNLRYKDNNLIDLSGYGAKVEVYDGVELNDKNQFKLTSSANSKIRVTQNQNIIFNSVFLDFSVSFWIRIPKYKNDGIQNYIHNEYTIINCMKNNSGWKISIRGNRIIWTLIDINGKTKSVFFEYNIREDISEYINRWFFVTITNNLNNAKIYINGKLESNTDIKDIREVIANGEIIFKLDGDIDRTQFIWMKYFSIFNTELSQSNIEERYKIQSYSEYLKDFWGNPLMYNKEYYMFNAGNKNSYIKLKKDSPVGEILTRSKYNQNSKYINYRDLYIGEKFIIRRKSNSQSINDDIVRKEDYIYLDFFNLNQEWRVYTYKYFKKEEEKLFLAPISDSDEFYNTIQIKEYDEQPTYSCQLLFKKDEESTDEIGLIGIHRFYESGIVFEEYKDYFCISKWYLKEVKRKPYNLKLGCNWQFIPKDEGWTE
[1]
  KD of the first, rapid step (2:1 heterogeneous ligand model): 90 nM
  KD of the second, slow step (2:1 heterogeneous ligand model): 20 nM

B2: BoNT/B, P10844 (protein)
chain: PVTINNFNYNDPIDNNNIIMMEPPFARGTGRYYKAFKITDRIWIIPERYTFGYKPEDFNKSSGIFNRDVCEYYDPDYLNTNDKKNIFLQTMIKLFNRIKSKPLGEKLLEMIINGIPYLGDRRVPLEEFNTNIASVTVNKLISNPGEVERKKGIFANLIIFGPGPVLNENETIDIGIQNHFASREGFGGIMQMKFCPEYVSVFNNVQENKGASIFNRRGYFSDPALILMHELIHVLHGLYGIKVDDLPIVPNEKKFFMQSTDAIQAEELYTFGGQDPSIITPSTDKSIYDKVLQNFRGIVDRLNKVLVCISDPNININIYKNKFKDKYKFVEDSEGKYSIDVESFDKLYKSLMFGFTETNIAENYKIKTRASYFSDSLPPVKIKNLLDNEIYTIEEGFNISDKDMEKEYRGQNKAINKQAYEEISKEHLAVYKIQMCKSVKAPGICIDVDNEDLFFIADKNSFSDDLSKNERIEYNTQSNYIENDFPINELILDTDLISKIELPSENTESLTDFNVDVPVYEKQPAIKKIFTDENTIFQYLYSQTFPLDIRDISLTSSFDDALLFSNKVYSFFSMDYIKTANKVVEAGLFAGWVKQIVNDFVIEANKSNTMDKIADISLIVPYIGLALNVGNETAKGNFENAFEIAGASILLEFIPELLIPVVGAFLLESYIDNKNKIIKTIDNALTKRNEKWSDMYGLIVAQWLSTVNTQFYTIKEGMYKALNYQAQALEEIIKYRYNIYSEKEKSNINIDFNDINSKLNEGINQAIDNINNFINGCSVSYLMKKMIPLAVEKLLDFDNTLKKNLLNYIDENKLYLIGSAEYEKSKVNKYLKTIMPFDLSIYTNDTILIEMFNKYNSEILNNIILNLRYKDNNLIDLSGYGAKVEVYDGVELNDKNQFKLTSSANSKIRVTQNQNIIFNSVFLDFSVSFWIRIPKYKNDGIQNYIHNEYTIINCMKNNSGWKISIRGNRIIWTLIDINGKTKSVFFEYNIREDISEYINRWFFVTITNNLNNAKIYINGKLESNTDIKDIREVIANGEIIFKLDGDIDRTQFIWMKYFSIFNTELSQSNIEERYKIQSYSEYLKDFWGNPLMYNKEYYMFNAGNKNSYIKLKKDSPVGEILTRSKYNQNSKYINYRDLYIGEKFIIRRKSNSQSINDDIVRKEDYIYLDFFNLNQEWRVYTYKYFKKEEEKLFLAPISDSDEFYNTIQIKEYDEQPTYSCQLLFKKDEESTDEIGLIGIHRFYESGIVFEEYKDYFCISKWYLKEVKRKPYNLKLGCNWQFIPKDEGWTE
[2]
  Kd: 20 nM and 90 nM
